Molecular target: T1, tryptophan 2-C-methyltransferase (TsrM) from Streptomyces laurentii (Streptomyces laurentii, UniProt C0JRZ9 1-599)
T1 construct: TsrM, tryptophan 2-C-methyltransferase of the thiostrepton synthesis pathway, Streptomyces laurentii; As purified it holds 0.9 cobalamin and 3.5 Fe per monomer ([4Fe-4S] cluster); The methods describe no TEV cleavage for TsrM, so the His-tag was probably still on the protein; also called cobalamin-dependent rSAM methyltransferase TsrM; source: E. coli BL21(DE3), coexpressed with the Btu operon, …
T1 sequence (looked up): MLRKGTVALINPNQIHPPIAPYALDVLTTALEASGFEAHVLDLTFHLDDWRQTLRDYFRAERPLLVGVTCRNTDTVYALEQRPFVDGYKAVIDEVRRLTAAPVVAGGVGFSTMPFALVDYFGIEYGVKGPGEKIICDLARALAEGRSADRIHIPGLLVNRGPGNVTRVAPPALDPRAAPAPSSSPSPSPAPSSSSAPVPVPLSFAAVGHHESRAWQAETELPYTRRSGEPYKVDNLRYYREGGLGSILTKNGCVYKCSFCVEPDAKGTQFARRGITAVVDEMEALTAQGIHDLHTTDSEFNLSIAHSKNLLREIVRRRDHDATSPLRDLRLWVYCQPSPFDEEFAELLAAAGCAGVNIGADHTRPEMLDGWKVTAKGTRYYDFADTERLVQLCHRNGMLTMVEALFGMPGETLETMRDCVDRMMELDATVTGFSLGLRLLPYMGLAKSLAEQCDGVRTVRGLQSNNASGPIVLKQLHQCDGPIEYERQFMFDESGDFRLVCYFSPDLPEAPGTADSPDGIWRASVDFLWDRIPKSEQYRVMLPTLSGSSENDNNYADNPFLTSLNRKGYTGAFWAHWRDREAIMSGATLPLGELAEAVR
Experiment: BLI; biotinylated ferredoxins (10 µg/mL) bound to streptavidin biosensors, plunged into TsrM solution at various concentrations (80 s association, 60 s dissociation); BLItz system in an anaerobic chamber (O2 <2 ppm); 25 mM Hepes pH 7.5, 300 mM KCl, 5% glycerol with Tween 20 and BSA
Details: both partners purified

Kd: 40 µM
B1: Streptomyces cattleya ferredoxin Fdx1 (natural protein, UniProt F8K3M7 1-106, looked up)
chain: MTYVIAQPCVDVKDKACIEECPVDCIYEGQRSLYIHPDECVDCGACEPVCPVEAIFYEDDTPEEWKDYYKANVEFFDELGSPGGASKLGLIERDHPFIAALPPQNG
modifications: biotin (incubation with one equivalent of NHS-PEG4-Biotin)
notes: ferredoxin Fdx1 of Streptomyces cattleya, GenBank AEW96347.1; 7.4 Fe atoms per monomer after reconstitution (two [4Fe-4S] clusters); also called double-cluster [4Fe-4S] ferredoxin; not shown: His-tag, N-terminal, cleaved

— paper PMC8896826, “Cellular assays identify barriers impeding iron-sulfur enzyme activity in a non-native prokaryotic host” (eLife, 2022)
